# Results from FireProtDB (doi:10.1074/jbc.m110728200).
# B1: Lysozyme C, P61626 (parent)
# chain: MKALIVLGLVLLSVTVQGKVFERCELARTLKRLGMDGYRGISLANWMCLAKWESGYNTRATNYNAGDRSTDYGIFQINSRYWCNDGKTPGAVNACHLSCSALLQDNIADAVACAKRVVRDPQGIRAWVAWRNRCQNRDVRQYVQGCGV
# Variants of: B1
# Settings: Homo sapiens; pH 2.7; 64.9 °C; Thermal; DSC; Gly-HCl 0.05 M; structure 1LZ1; whole UniProt chain shown
Variant,ddG of mutation (higher = less stable) [kcal/mol],unfolding enthalpy (calorimetric) [kcal/mol],heat capacity change of unfolding [kcal/mol/K]
MKALIVLGLVLLSVTVQGKVFERCELARTLKRLGMDGYRGISLANWMCLAKWESGYNTRATNYNAGDRSTDYGIFQINSRYWCNDGKTPGAVNACHLSCSALLQDNIADAVACAKRVVRDPQGIRAWRAWRNRCQNRDVRQYVQGCGV [V128R],-0.88,101,
MKALIVLGLVLLSVTVQGKVFERCELARTLKRLGMDGYRGISLANWMCLAKWESGYNTRATNYNAGDRSTDYGIFQINSRYWCNDGKTPGAYNACHLSCSALLQDNIADAVACAKRVVRDPQGIRAWVAWRNRCQNRDVRQYVQGCGV [V92Y],0.24,107,1.65
MKALIVLGLVLLSVTVQGKVFERCELARTLKRLGMDGYRGISLANWMCLAKWESGYNTRATNYNAGDRSTDYGIFQINSRYWCNDGKTPGARNACHLSCSALLQDNIADAVACAKRVVRDPQGIRAWVAWRNRCQNRDVRQYVQGCGV [V92R],0.07,104,1.67
MKALIVLGLVLLSVTVQGKYFERCELARTLKRLGMDGYRGISLANWMCLAKWESGYNTRATNYNAGDRSTDYGIFQINSRYWCNDGKTPGAVNACHLSCSALLQDNIADAVACAKRVVRDPQGIRAWVAWRNRCQNRDVRQYVQGCGV [V20Y],,106,1.82

# Same assay, conditions: Homo sapiens; pH 2.7; Thermal; DSC; Gly-HCl 0.05 M; structure 1LZ1; whole UniProt chain shown
Variant,Tm [°C],"change of melting temperature, mutant - wild type (higher = more stable) [°C]"
MKALIVLGLVLLSVTVQGKVFERCELARTLKRLGMDGYRGISLANWMCLAKWESGYNTRATNYNAGDRSTDYGIFQINSRYWCNDGKTPGAVNACHLSCSALLQDNIADAVACAKRVVRDPQGIRAWRAWRNRCQNRDVRQYVQGCGV [V128R],67.8,2.9
MKALIVLGLVLLSVTVQGKVFERCELARTLKRLGMDGYRGISLANWMCLAKWESGYNTRATNYNAGDRSTDYGIFQINSRYWCNDGKTPGAYNACHLSCSALLQDNIADAVACAKRVVRDPQGIRAWVAWRNRCQNRDVRQYVQGCGV [V92Y],64,-0.9
MKALIVLGLVLLSVTVQGKVFERCELARTLKRLGMDGYRGISLANWMCLAKWESGYNTRATNYNAGDRSTDYGIFQINSRYWCNDGKTPGARNACHLSCSALLQDNIADAVACAKRVVRDPQGIRAWVAWRNRCQNRDVRQYVQGCGV [V92R],64.6,-0.3

# Same assay, conditions: Homo sapiens; pH 2.8; Thermal; DSC; Gly-HCl 0.05 M; structure 1LZ1; whole UniProt chain shown
Variant,Tm [°C],unfolding enthalpy (calorimetric) [kcal/mol],unfolding enthalpy (van 't Hoff) [kcal/mol]
MKALIVLGLVLLSVTVQGKVFERCELARTLKRLGMDGYRGISLANWMCLAKWESGYNTRATNYNAGDRSTDYGIFQINSRYWCNDGKTPGAVNACHLSCSALLQDNIADAVACAKRVVRDPQGIRAWRAWRNRCQNRDVRQYVQGCGV [V128R],69.3,108,110

# Same assay, conditions: Homo sapiens; pH 3.01; Thermal; DSC; Gly-HCl 0.05 M; structure 1LZ1; whole UniProt chain shown
Variant,Tm [°C],unfolding enthalpy (calorimetric) [kcal/mol],unfolding enthalpy (van 't Hoff) [kcal/mol]
MKALIVLGLVLLSVTVQGKVFERCELARTLKRLGMDGYRGISLANWMCLAKWESGYNTRATNYNAGDRSTDYGIFQINSRYWCNDGKTPGAVNACHLSCSALLQDNIADAVACAKRVVRDPQGIRAWRAWRNRCQNRDVRQYVQGCGV [V128R],72.8,114,116

# Same assay, conditions: Homo sapiens; pH 3.15; Thermal; DSC; Gly-HCl 0.05 M; structure 1LZ1; whole UniProt chain shown
Variant,Tm [°C],unfolding enthalpy (calorimetric) [kcal/mol],unfolding enthalpy (van 't Hoff) [kcal/mol]
MKALIVLGLVLLSVTVQGKVFERCELARTLKRLGMDGYRGISLANWMCLAKWESGYNTRATNYNAGDRSTDYGIFQINSRYWCNDGKTPGAVNACHLSCSALLQDNIADAVACAKRVVRDPQGIRAWRAWRNRCQNRDVRQYVQGCGV [V128R],75,117,120

# Same assay, conditions: Homo sapiens; pH 2.67; Thermal; DSC; Gly-HCl 0.05 M; structure 1LZ1; whole UniProt chain shown
Variant,Tm [°C],unfolding enthalpy (calorimetric) [kcal/mol],unfolding enthalpy (van 't Hoff) [kcal/mol]
MKALIVLGLVLLSVTVQGKVFERCELARTLKRLGMDGYRGISLANWMCLAKWESGYNTRATNYNAGDRSTDYGIFQINSRYWCNDGKTPGAYNACHLSCSALLQDNIADAVACAKRVVRDPQGIRAWVAWRNRCQNRDVRQYVQGCGV [V92Y],63.3,104,104

# Same assay, conditions: Homo sapiens; pH 3.02; Thermal; DSC; Gly-HCl 0.05 M; structure 1LZ1; whole UniProt chain shown
Variant,Tm [°C],unfolding enthalpy (calorimetric) [kcal/mol],unfolding enthalpy (van 't Hoff) [kcal/mol]
MKALIVLGLVLLSVTVQGKVFERCELARTLKRLGMDGYRGISLANWMCLAKWESGYNTRATNYNAGDRSTDYGIFQINSRYWCNDGKTPGAYNACHLSCSALLQDNIADAVACAKRVVRDPQGIRAWVAWRNRCQNRDVRQYVQGCGV [V92Y],70,115,116

# Same assay, conditions: Homo sapiens; pH 3.21; Thermal; DSC; Gly-HCl 0.05 M; structure 1LZ1; whole UniProt chain shown
Variant,Tm [°C],unfolding enthalpy (calorimetric) [kcal/mol],unfolding enthalpy (van 't Hoff) [kcal/mol]
MKALIVLGLVLLSVTVQGKVFERCELARTLKRLGMDGYRGISLANWMCLAKWESGYNTRATNYNAGDRSTDYGIFQINSRYWCNDGKTPGAYNACHLSCSALLQDNIADAVACAKRVVRDPQGIRAWVAWRNRCQNRDVRQYVQGCGV [V92Y],73.3,120,120
MKALIVLGLVLLSVTVQGKYFERCELARTLKRLGMDGYRGISLANWMCLAKWESGYNTRATNYNAGDRSTDYGIFQINSRYWCNDGKTPGAVNACHLSCSALLQDNIADAVACAKRVVRDPQGIRAWVAWRNRCQNRDVRQYVQGCGV [V20Y],72,120,120

# Same assay, conditions: Homo sapiens; pH 3.26; Thermal; DSC; Gly-HCl 0.05 M; structure 1LZ1; whole UniProt chain shown
Variant,Tm [°C],unfolding enthalpy (calorimetric) [kcal/mol],unfolding enthalpy (van 't Hoff) [kcal/mol]
MKALIVLGLVLLSVTVQGKVFERCELARTLKRLGMDGYRGISLANWMCLAKWESGYNTRATNYNAGDRSTDYGIFQINSRYWCNDGKTPGAYNACHLSCSALLQDNIADAVACAKRVVRDPQGIRAWVAWRNRCQNRDVRQYVQGCGV [V92Y],74.1,122,123

# Same assay, conditions: Homo sapiens; pH 2.66; Thermal; DSC; Gly-HCl 0.05 M; structure 1LZ1; whole UniProt chain shown
Variant,Tm [°C],unfolding enthalpy (calorimetric) [kcal/mol],unfolding enthalpy (van 't Hoff) [kcal/mol]
MKALIVLGLVLLSVTVQGKVFERCELARTLKRLGMDGYRGISLANWMCLAKWESGYNTRATNYNAGDRSTDYGIFQINSRYWCNDGKTPGARNACHLSCSALLQDNIADAVACAKRVVRDPQGIRAWVAWRNRCQNRDVRQYVQGCGV [V92R],63.8,102,100

# Same assay, conditions: Homo sapiens; pH 2.85; Thermal; DSC; Gly-HCl 0.05 M; structure 1LZ1; whole UniProt chain shown
Variant,Tm [°C],unfolding enthalpy (calorimetric) [kcal/mol],unfolding enthalpy (van 't Hoff) [kcal/mol]
MKALIVLGLVLLSVTVQGKVFERCELARTLKRLGMDGYRGISLANWMCLAKWESGYNTRATNYNAGDRSTDYGIFQINSRYWCNDGKTPGARNACHLSCSALLQDNIADAVACAKRVVRDPQGIRAWVAWRNRCQNRDVRQYVQGCGV [V92R],67.3,108,105

# Same assay, conditions: Homo sapiens; pH 3; Thermal; DSC; Gly-HCl 0.05 M; structure 1LZ1; whole UniProt chain shown
Variant,Tm [°C],unfolding enthalpy (calorimetric) [kcal/mol],unfolding enthalpy (van 't Hoff) [kcal/mol]
MKALIVLGLVLLSVTVQGKVFERCELARTLKRLGMDGYRGISLANWMCLAKWESGYNTRATNYNAGDRSTDYGIFQINSRYWCNDGKTPGARNACHLSCSALLQDNIADAVACAKRVVRDPQGIRAWVAWRNRCQNRDVRQYVQGCGV [V92R],69.5,112,109

# Same assay, conditions: Homo sapiens; pH 3.18; Thermal; DSC; Gly-HCl 0.05 M; structure 1LZ1; whole UniProt chain shown
Variant,Tm [°C],unfolding enthalpy (calorimetric) [kcal/mol],unfolding enthalpy (van 't Hoff) [kcal/mol]
MKALIVLGLVLLSVTVQGKVFERCELARTLKRLGMDGYRGISLANWMCLAKWESGYNTRATNYNAGDRSTDYGIFQINSRYWCNDGKTPGARNACHLSCSALLQDNIADAVACAKRVVRDPQGIRAWVAWRNRCQNRDVRQYVQGCGV [V92R],72.8,117,114

# Same assay, conditions: Homo sapiens; pH 3.22; Thermal; DSC; Gly-HCl 0.05 M; structure 1LZ1; whole UniProt chain shown
Variant,Tm [°C],unfolding enthalpy (calorimetric) [kcal/mol],unfolding enthalpy (van 't Hoff) [kcal/mol]
MKALIVLGLVLLSVTVQGKVFERCELARTLKRLGMDGYRGISLANWMCLAKWESGYNTRATNYNAGDRSTDYGIFQINSRYWCNDGKTPGARNACHLSCSALLQDNIADAVACAKRVVRDPQGIRAWVAWRNRCQNRDVRQYVQGCGV [V92R],73.2,118,116

# Same assay, conditions: Homo sapiens; pH 2.83; Thermal; DSC; Gly-HCl 0.05 M; structure 1LZ1; whole UniProt chain shown
Variant,Tm [°C],unfolding enthalpy (calorimetric) [kcal/mol],unfolding enthalpy (van 't Hoff) [kcal/mol]
MKALIVLGLVLLSVTVQGKYFERCELARTLKRLGMDGYRGISLANWMCLAKWESGYNTRATNYNAGDRSTDYGIFQINSRYWCNDGKTPGAVNACHLSCSALLQDNIADAVACAKRVVRDPQGIRAWVAWRNRCQNRDVRQYVQGCGV [V20Y],65.9,108,110

# Same assay, conditions: Homo sapiens; pH 2.91; Thermal; DSC; Gly-HCl 0.05 M; structure 1LZ1; whole UniProt chain shown
Variant,Tm [°C],unfolding enthalpy (calorimetric) [kcal/mol],unfolding enthalpy (van 't Hoff) [kcal/mol]
MKALIVLGLVLLSVTVQGKYFERCELARTLKRLGMDGYRGISLANWMCLAKWESGYNTRATNYNAGDRSTDYGIFQINSRYWCNDGKTPGAVNACHLSCSALLQDNIADAVACAKRVVRDPQGIRAWVAWRNRCQNRDVRQYVQGCGV [V20Y],67.4,111,112

# Same assay, conditions: Homo sapiens; pH 3.2; Thermal; DSC; Gly-HCl 0.05 M; structure 1LZ1; whole UniProt chain shown
Variant,Tm [°C],unfolding enthalpy (calorimetric) [kcal/mol],unfolding enthalpy (van 't Hoff) [kcal/mol]
MKALIVLGLVLLSVTVQGKYFERCELARTLKRLGMDGYRGISLANWMCLAKWESGYNTRATNYNAGDRSTDYGIFQINSRYWCNDGKTPGAVNACHLSCSALLQDNIADAVACAKRVVRDPQGIRAWVAWRNRCQNRDVRQYVQGCGV [V20Y],72.3,119,120

# Same assay, conditions: Homo sapiens; pH 3.24; Thermal; DSC; Gly-HCl 0.05 M; structure 1LZ1; whole UniProt chain shown
Variant,Tm [°C],unfolding enthalpy (calorimetric) [kcal/mol],unfolding enthalpy (van 't Hoff) [kcal/mol]
MKALIVLGLVLLSVTVQGKYFERCELARTLKRLGMDGYRGISLANWMCLAKWESGYNTRATNYNAGDRSTDYGIFQINSRYWCNDGKTPGAVNACHLSCSALLQDNIADAVACAKRVVRDPQGIRAWVAWRNRCQNRDVRQYVQGCGV [V20Y],73,121,122
